Measured values published in US8252554B2, “Halohydrin dehalogenases and related polynucleotides” (Codexis, Inc., priority 2003, dated 2012).

Test: Example 7 manufacture of ethyl (R)-4-cyano-3-hydroxybutyrate with HHDH cell lysate
Type: biochemical
Settings: 40° C., pH 7, 17 hours
Protocol: To a 3-necked jacketed 3 L flask equipped with a mechanical stirrer and connected to an automatic titrater by a pH electrode and a feeding tube for addition of base, was charged H2O (1200 mL), NaCN (37.25 g) and NaH2PO4 (125 g) to bring the solution to pH 7. The water circulator was set to 40° C. After 10 minutes, halohydrin dehalogenase of SEQ ID NO: 32 as cell lysate (250 mL) was added. The reaction mixture was allowed to stir for 5 minutes. Using an addition funnel, ethyl (S)-4-chloro-3-hydroxybutyrate (45 g) was slowly added over 1 hour. The pH was maintained at 7 by the automatic titrater by the addition of 10 M NaOH (27 mL) over 17 hours. […] Celite™ (16 g) was added to the flask, which was then connected to a diaphragm pump, whose exhaust is bubbled into 5M NaOH (200 mL), to remove HCN. The mixture was heated to 60° C. under 100 mm Hg pressure. After 1 hour, a submerged air bubbler was added to the solution to aid the removal of the HCN. After 3 hours, an HCN detector indicated less than 5 ppm HCN in the off-gas. The mixture was allowed to cool to room temperature, then filtered through a Celite™ pad. […] Enantiomeric composition can be readily characterized by using the gas chromatography method described in Example 6, above, and using methods that are known in the art.

B1: SEQ ID NO: 32: native halohydrin dehalogenase from Agrobacterium radiobacter AD1 (hheC), expressed from SEQ ID NO. 31 (protein)
chain: MSTAIVTNVKHFGGMGSALRLSEAGHTVACHDESFKQKDELEAFAETYPQLKPMSEQEPAELIEAVTSAYGQVDVLVSNDIFAPEFQPIDKYAVEDYRGAVEALQIRPFALVNAVASQMKKRKSGHIIFITSATPFGPWKELSTYTSARAGACTLANALSKELGEYNIPVFAIGPNYLHSEDSPYFYPTEPWKTNPEHVAHVKKVTALQRLGTQKELGELVAFLASGSCDYLTGQVFWLAGGFPMIERWPGMPE
  conversion to product by gas chromatography: complete conversion to product
